This is an account of results in the nanobody polyreactivity screen of Harvey et al. (2022).

A short description of the data set: yeast display, Sf9 membrane polyspecificity reagent, FACS + sequencing; frameworks hold sequencing errors. A digest of the protocol: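 Synthetic nanobody libraries on Saccharomyces cerevisiae BJ5465 were galactose-induced for 36–48 hours, stained 1 hour at 4 °C with 10% biotinylated, detergent-solubilized Sf9 membrane reagent and enriched on streptavidin microbeads. FACS then separated cells into low and high (top ~1%) gates by anti-HA (expression) and streptavidin (reagent binding) fluorescence. Genes were colony-PCR amplified, MiSeq 2 × 250 sequenced and CDR-length filtered. A clone's polyreactivity label is that of its gate of origin.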
In the case of “QVQLVESGGGLVQAGGSLRLSCAASGNTFYGYAMGWYRQAPGKERELVASITLSGDSTYYADSVKGRFTISRDNAKKTVYLQMNSLKPEDTAVYYCAGVYTYPLGYYHYTYDYWGQGTQVTVSS”, the “polyreactivity (PSR sort gate)” value was “low polyreactivity”.
Turning to “QVQLVESGGGLVQAGGSLRLSCAASGNTFYGYAMGWYRQAPGKERELVASITLSGDSTYYADSVKGRFTISRDNAKNTVYLQMNSLKPEDTAVYSCAGVYTYPLGYYHYTYDYWGQGTQVTVSS”, the “polyreactivity (PSR sort gate)” value is reported as “low polyreactivity”.
The same measure for “QVQLVESGGGLVQAGGSLRLSCAASGNTFYHYAMGWYRQAPGKERELVAAITWTGDSTYYADSVKGRFTISRDNAKNTVYLQMNSLKPEDTAVYYCNRVGYQSMNYWGQGTQVTVSS”: “low polyreactivity”; for “QVQLVESGGGLVQAGGSLRLSCAASGNTFYQYAMGWYRQAPGKERELVAAIDWSGGSTYADSVKGRFTISRDNAKNTVYLQMNSLKPEDTAVYYCNASVKPSNVWSRGYDYWGQGTQVTVSS”: “low polyreactivity”.
In the case of “QVQLVESGGGLVQAGGSLRLSCAASGNTFYQYAMGWYRQAPGTERELVAAISSSGGSTYYADSVKGRFTISRDNAKKTVYLQMNSLKPEDTAVYYCATDKSYGYYYWGQGTQVTVSS”, the “polyreactivity (PSR sort gate)” value is “low polyreactivity”.
For “QVQLVESGGGLVQAGGSLRLSCAASGNTFYRYAMGWYRQAPGKEREFVAGITSRGGSTSYADSVKGRFTISRDNAKNTVYLQMNSLKPEDTAVYYCAKKYFRPLRSYDYWGQGTQVTVSS”, the “polyreactivity (PSR sort gate)” value is “high polyreactivity”.
With “QVQLVESGGGLVQAGGSLRLSCAASGNTFYSNAMRWYRQAPGKERELVAAISTSGGSTFYADSVKGRFTISRDNAKNTVYLQMNSLKPEDTAVYYCAARSLRGHRYRYDYWGQGTQVTVSS” the entry was “high polyreactivity”; with “QVQLVESGGGLVQAGGSLRLSCAASGNTFYSYAMGWYRQAPGKERELVAAITWGGRTKYADSVKGRFTISRDNAKNTVYLQMNSLKPEDTAVDYCAARLYHGKTKYDYWGQGTQVTVSS”, “high polyreactivity”; with “QVQLVESGGGLVQAGGSLRLSCAASGNTFYVNAMGWYRQAPGKERELVATISKRGSSTYYADSVKGRFTISRDNAKNTVFLQMNSLKPEDTAVYYCNAEGPSYYYIIYDYWGQGTQVTVSS”, “high polyreactivity”.
Turning to “QVQLVESGGGLVQAGGSLRLSCAASGNTFYVNVMGWYRHAPGKEREFVAAISTRGVSTSYADSVKGRFTISRDYAKNTVYLQMNRLKPEDTAVYYCAKRFLPPGRAVTYDYWGQGTQVTVSS”, the “polyreactivity (PSR sort gate)” value is recorded as “high polyreactivity”.
For “QVQLVESGGGLVQAGGSLRLSCAASGNTFYYYAMGWYRQAPGKERELVASITWRGGDTYYADSVKGRFTISRDNAKNTVYLQMNSQKPEDTAVFYFAKPRLGRYDSMSYLGDYAGYVYWGQGTQVTLSS”, the “polyreactivity (PSR sort gate)” value is recorded as “low polyreactivity”.
For “QVQLVESGGGLVQAGGSLRLSCAASGNTIFHYAMGWYRQAPGKERELVAAISSADSTYYADSVKGRFTISRDNAKNTVYLQMNSLKPEDTAVYYCAKDRPNRPDLYDYWGQGTQVTLSS”, the “polyreactivity (PSR sort gate)” value is listed as “low polyreactivity”.
On to “QVQLVESGGGLVQAGGSLRLSCAASGNTIKDYTMGWYRQAPGKERELVASINSGGSTNYADSVKGRFTISRDNPKNTVYLQMNSLKPEDTAVYYSAKRAWSDYNPIDYWGQGTQVTVSS”, for which the “polyreactivity (PSR sort gate)” value is on record as “low polyreactivity”.
Regarding “QVQLVESGGGLVQAGGSLRLSCAASGNTIYKYTMGWSRQAPGKERELVAVISSSSGSTYYADSVKGRFTISRDNAKNTVYLQMNSLKPEDTAVYYCNKRGWWDLRHDYWGQGTQVTVSS”, the “polyreactivity (PSR sort gate)” value is on record as “low polyreactivity”.
For the sequence “QVQLVESGGGLVQAGGSLRLSCAASGNTLAANAMGWYRQAPGKERELVAAITYSGGSTYYADSVKGRFTISRDNAKNTVYLQMSSLKPEDTAVYDCNAPYVFSAGFDYWGQGTQVTVSS”, the “polyreactivity (PSR sort gate)” value was “low polyreactivity”.
On to “QVQLVESGGGLVQAGGSLRLSCAASGNTLDAYTMGWYRQAPGKERELVAAISRGGTRTYYADSVKGRFTISRDNAKNTVYLQMNSLKPEDTAVYYCNKQFPYSKYYIMGYWGQGTQVTVSS”, for which the “polyreactivity (PSR sort gate)” value is listed as “high polyreactivity”.
The same measure for “QVQLVESGGGLVQAGGSLRLSCAASGNTLHRYVMGWYRPAPGKERELVAVITRGTSTYYADSVKGRFTISRDNAKNTVYLQMNSLKPEDTAVYYCAARYTFPYSRYDYWGQGTQVTVSS”: “low polyreactivity”; for “QVQLVESGGGLVQAGGSLRLSCAASGNTLQYYAMGWYRQAPGKERELVAAITTGGSTNYADSVKARFTISRDNAKNTGYLQMNSLKPEDTAVYYCAARGGVSKRISDYWGQGTQVTVSS”: “low polyreactivity”.
The same measure for “QVQLVESGGGLVQAGGSLRLSCAASGNTLVKNAMGWYRQAPGKERELVAANSSSGGRTYYADSVKGRFTISRDNAKTTVYLQLNSLKPEDTAVYYCAARYPSGYYYWGQGTQVTVSS”: “high polyreactivity”; for “QVQLVESGGGLVQAGGSLRLSCAASGNTLYQYAMGWYRQAPGKERELVASITWSGSSTYYADSVKGRFTISRDNAKNTVYVQMNSLKPEDPAVYYCAAYGYHRDYLYDYWGQGTQVTVSS”: “low polyreactivity”.
Take “QVQLVESGGGLVQAGGSLRLSCAASGNTSPYSAMGWYRQAPGKEREWVAGISSGGTTNYADSVKGRFTISRDNAKNTVDLQMNSLKPVDTAVYYCAADEWYVECLGYFFAYDYWGQGTQVTVSS”: the “polyreactivity (PSR sort gate)” value is reported as “low polyreactivity”.
With “QVQLVESGGGLVQAGGSLRLSCAASGNTYDPNAMGWYRQAPGKERELVAAISSDGSTKYADSVKGRFTISRDNAKNTVYLQMNSLKPEDTAVYYCAADHGYWYWYGGDNSWGQGTQVTVSS” the entry was “low polyreactivity”; with “QVQLVESGGGLVQAGGSLRLSCAASGNTYGYNAMGWYRQAPGKERELVASITWSGGSTYYADSVKGRFTISRDNAKNTVYLQMNSLKPEDTAVYYCNADVRYGRDHWGQGTQVTVSS”, “low polyreactivity”.
The same measure for “QVQLVESGGGLVQAGGSLRLSCAASGPIFKRNAMGWYRQAPGKERELVAAISGSGGRTNYADSVKGRFTISRDTAKNTVYLQMNSLKPEDTAVYYCAARANFFGWPKSYYYLGQGTQVTVSS”: “high polyreactivity”; for “QVQLVESGGGLVQAGGSLRLSCAASGPIFLRYAIGWYRQAPGKERVLVAVISRSGSSTYYADSVKGRFTISRDNAKNTVYLQMNSLKPEDTAFYHCAAGYSWGYSSQKLRYGYLGQGTQVTVSS”: “high polyreactivity”.
For “QVQLVESGGGLVQAGGSLRLSCAASGPILGQYAMGWYRQAPGKDRELVAAITYSGGRTYYADSVKGRFTLSRDNAKNTVYLQMNSLKPEDTAVYYCAARGRASVERRGGYYYWGQGTQVTVSS”, the “polyreactivity (PSR sort gate)” value is on record as “high polyreactivity”.
The same measure for “QVQLVESGGGLVQAGGSLRLSCAASGPTFFLYDMGWYRQAPGKERELVAAITSSGGDTYYADSVKGRFTISRDNAKNTVYLQMNSLKPEDTAVYYCAAEVWFPDRWMDYWGQGTQVTVSS”: “high polyreactivity”; for “QVQLVESGGGLVQAGGSLRLSCAASGPTFPFNAMVWYRQAPGKERELVAAISWRDGRTYYADSVKGRFTISRDNAKNTVYLQMNSLKPEDTAVYYCNVVKRRSDWGMVYWGQGTQVTVSS”: “high polyreactivity”.
The same measure for “QVQLVESGGGLVQAGGSLRLSCAASGPTFYRYAMGWYRQAPGKERELVAAISSSGGSTYYADSVKGRFTISRDNANNTVYLQMNSLKPEDTAVYYCATGYRYASYLCNYWGHGTQVTVSS”: “high polyreactivity”; for “QVQLVESGGGLVQAGGSLRLSCAASGPTIDLYAMGCYRQAPGKERELVATIRSDGSTTYADSVKGRFTISRDNAKNTVYLQLNSLKPEDTAVYDCAAAFRSGFSSSTTPVQSDWGQGTQVTVSS”: “low polyreactivity”.
